Test system: Escherichia coli TOP10
Test: shrunken log2 fold change of peptide-encoding DNA abundance (4.5 h post-induction vs induction); higher = less antimicrobial activity (less host growth inhibition)
Details: time post-induction: 4.5 h; library: site-saturation at positions 5, 18, 19, 20
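Also: peptides expressed intracellularly from a pBAD plasmid library in pooled LB shake-flask culture, induced with 0.3% L-arabinose, DNA abundance read by NGS, three biological replicates, DESeq2 with apeglm shrinkage.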

Sequence	shrunken log2 fold change
RRIRPRPPRLPRPRPRPAIAPRP	0.194
RRIRTRPPRLPRPRPRPPTHPRP	0.176
RRIRSRPPRLPRPRPRPMNGPRP	-0.205
RRIRNRPPRLPRPRPRPLHYPRP	-0.147
RRIRLRPPRLPRPRPRPLLRPRP	0.196
RRIRKRPPRLPRPRPRPAPKPRP	1.06
RRIRIRPPRLPRPRPRPVNGPRP	-0.0532
RRIRRRPPRLPRPRPRPTDVPRP	-0.0348
RRIRSRPPRLPRPRPRPRFGPRP	0.342
RRIRARPPRLPRPRPRPTNRPRP	0.05
RRIRMRPPRLPRPRPRPDKGPRP	-0.0141
RRIRMRPPRLPRPRPRPDALPRP	0.438
RRIRRRPPRLPRPRPRPLTEPRP	0.793
RRIRTRPPRLPRPRPRPYMQPRP	-0.298
RRIRCRPPRLPRPRPRPIEHPRP	-0.00454
RRIRWRPPRLPRPRPRPDKEPRP	0.0411
RRIRWRPPRLPRPRPRPCYHPRP	-0.123
RRIRDRPPRLPRPRPRPAWSPRP	0.168
RRIRWRPPRLPRPRPRPTHYPRP	0.0892
RRIRKRPPRLPRPRPRPAVYPRP	-0.0285
RRIRCRPPRLPRPRPRPHKAPRP	-0.253
RRIRKRPPRLPRPRPRPHMFPRP	-0.469
RRIRQRPPRLPRPRPRPPAYPRP	0.106
RRIRNRPPRLPRPRPRPEFEPRP	0.114
RRIRERPPRLPRPRPRPGDGPRP	0.389

Sequence	shrunken log2 fold change
RRIRPRPPRLPRPRPRPASAPRP	0.441
RRIRRRPPRLPRPRPRPSPNPRP	0.396
RRIRQRPPRLPRPRPRPADEPRP	-0.101
RRIRHRPPRLPRPRPRPILPPRP	0.0147
RRIRPRPPRLPRPRPRPWTSPRP	-0.0224
RRIRRRPPRLPRPRPRPTEPPRP	0.4
RRIRTRPPRLPRPRPRPWCHPRP	-0.732
RRIRVRPPRLPRPRPRPHARPRP	0.0538
RRIRNRPPRLPRPRPRPITHPRP	-0.644
RRIRFRPPRLPRPRPRPWYAPRP	-0.791
RRIRQRPPRLPRPRPRPWNYPRP	-0.201
RRIRCRPPRLPRPRPRPGHQPRP	0.242
RRIRNRPPRLPRPRPRPVSEPRP	-0.253
RRIRKRPPRLPRPRPRPCQCPRP	-0.0903
RRIRWRPPRLPRPRPRPPYKPRP	-0.249
RRIRIRPPRLPRPRPRPKCFPRP	-0.852
RRIRFRPPRLPRPRPRPRPHPRP	0.355
RRIRGRPPRLPRPRPRPMQKPRP	0.61
RRIRMRPPRLPRPRPRPYTVPRP	0.0221
RRIRSRPPRLPRPRPRPRHPPRP	0.215
RRIRFRPPRLPRPRPRPATDPRP	-0.0766
RRIRRRPPRLPRPRPRPDKKPRP	0.0135
RRIRWRPPRLPRPRPRPAFWPRP	0.708
RRIRQRPPRLPRPRPRPENCPRP	-0.219
RRIRYRPPRLPRPRPRPMYAPRP	-0.0214

Sequence	shrunken log2 fold change
RRIRARPPRLPRPRPRPISVPRP	-0.173
RRIRTRPPRLPRPRPRPYKDPRP	-0.308
RRIRCRPPRLPRPRPRPEHTPRP	-0.0466
RRIRCRPPRLPRPRPRPWAMPRP	-0.226
RRIRCRPPRLPRPRPRPQTTPRP	-0.155
RRIRARPPRLPRPRPRPKYHPRP	-0.103
RRIRDRPPRLPRPRPRPSHYPRP	-1.14
RRIRNRPPRLPRPRPRPETVPRP	-0.00716
RRIRARPPRLPRPRPRPSADPRP	0.804
RRIRWRPPRLPRPRPRPKKFPRP	0.0141
RRIRPRPPRLPRPRPRPVWTPRP	0.224
RRIRMRPPRLPRPRPRPISAPRP	0.0396
RRIRNRPPRLPRPRPRPLITPRP	-0.173
RRIRCRPPRLPRPRPRPWRSPRP	-0.0803
RRIRGRPPRLPRPRPRPYEMPRP	0.0132
RRIRARPPRLPRPRPRPAHNPRP	0.155
RRIRVRPPRLPRPRPRPKPTPRP	0.707
RRIRRRPPRLPRPRPRPMKWPRP	0.016
RRIRPRPPRLPRPRPRPQYNPRP	-0.742
RRIRHRPPRLPRPRPRPEAPPRP	0.641
RRIRYRPPRLPRPRPRPDANPRP	-0.114
RRIRHRPPRLPRPRPRPSAIPRP	-0.00669
RRIRSRPPRLPRPRPRPAQEPRP	0.0123
RRIRERPPRLPRPRPRPGNQPRP	-0.00399
RRIRFRPPRLPRPRPRPQVDPRP	-0.412

Sequence	shrunken log2 fold change
RRIRCRPPRLPRPRPRPYSKPRP	-0.192
RRIRGRPPRLPRPRPRPETLPRP	1.37
RRIRQRPPRLPRPRPRPLLTPRP	-0.235
RRIRWRPPRLPRPRPRPFINPRP	-0.635
RRIRGRPPRLPRPRPRPILGPRP	-0.0749
RRIRIRPPRLPRPRPRPAASPRP	0.241
RRIRQRPPRLPRPRPRPSGLPRP	-0.0802
RRIRQRPPRLPRPRPRPSLGPRP	-0.162
RRIRPRPPRLPRPRPRPFMRPRP	-0.1
RRIRRRPPRLPRPRPRPFHSPRP	0.00922
RRIRPRPPRLPRPRPRPNDWPRP	0.0287
RRIRFRPPRLPRPRPRPSEWPRP	-0.028
RRIRFRPPRLPRPRPRPSIDPRP	-0.433
RRIRDRPPRLPRPRPRPLWNPRP	0.0619
RRIRPRPPRLPRPRPRPICFPRP	-0.189
RRIRDRPPRLPRPRPRPKCFPRP	0.0766
RRIRNRPPRLPRPRPRPILQPRP	-0.387
RRIRQRPPRLPRPRPRPEIGPRP	0.0792
RRIRERPPRLPRPRPRPMRYPRP	0.000213
RRIRWRPPRLPRPRPRPEYVPRP	0.214
RRIRQRPPRLPRPRPRPKIGPRP	-0.0543
RRIRTRPPRLPRPRPRPGHCPRP	-0.0671
RRIRERPPRLPRPRPRPLRAPRP	0.348
RRIRWRPPRLPRPRPRPAVRPRP	-0.0873
RRIRNRPPRLPRPRPRPTSYPRP	0.00322

Sequence	shrunken log2 fold change
RRIRMRPPRLPRPRPRPAWMPRP	0.189
RRIRGRPPRLPRPRPRPDVAPRP	1.98
RRIRWRPPRLPRPRPRPCHYPRP	-0.0893
RRIRLRPPRLPRPRPRPPDNPRP	0.0299
RRIRHRPPRLPRPRPRPVIQPRP	-0.00152
RRIRVRPPRLPRPRPRPNKSPRP	-0.348
RRIRQRPPRLPRPRPRPTCAPRP	0.406
RRIRPRPPRLPRPRPRPAIGPRP	-0.0136
RRIRIRPPRLPRPRPRPIKFPRP	-0.933
RRIRHRPPRLPRPRPRPQMLPRP	-0.0829
RRIRSRPPRLPRPRPRPPAHPRP	0.303
RRIRIRPPRLPRPRPRPIITPRP	-0.625
RRIRTRPPRLPRPRPRPPAYPRP	-0.0816
RRIRIRPPRLPRPRPRPQKSPRP	-0.403
RRIRFRPPRLPRPRPRPKHRPRP	-0.094
RRIRMRPPRLPRPRPRPLLKPRP	2.7
RRIRNRPPRLPRPRPRPENKPRP	-0.0669
RRIRNRPPRLPRPRPRPSLQPRP	-0.0436
RRIRTRPPRLPRPRPRPHPTPRP	0.106
RRIRCRPPRLPRPRPRPYYAPRP	-1.1
RRIRFRPPRLPRPRPRPPSLPRP	-0.112
RRIRPRPPRLPRPRPRPGDWPRP	0.432
RRIRKRPPRLPRPRPRPNESPRP	-0.0703
RRIRRRPPRLPRPRPRPGDRPRP	0.265
RRIRVRPPRLPRPRPRPNPCPRP	-0.461

Sequence	shrunken log2 fold change
RRIRERPPRLPRPRPRPDWHPRP	-0.12
RRIRLRPPRLPRPRPRPSVDPRP	-0.462
RRIRNRPPRLPRPRPRPHWIPRP	-0.322
RRIRSRPPRLPRPRPRPNTPPRP	-0.616
RRIRDRPPRLPRPRPRPRPQPRP	1.8
RRIRRRPPRLPRPRPRPDHKPRP	0.027
RRIRGRPPRLPRPRPRPDTGPRP	-0.0756
RRIRMRPPRLPRPRPRPGVQPRP	0.16
RRIRTRPPRLPRPRPRPPKRPRP	0.302
RRIRHRPPRLPRPRPRPTSWPRP	0.091
RRIRKRPPRLPRPRPRPEDRPRP	0.206
RRIRPRPPRLPRPRPRPLWIPRP	-0.128
RRIRARPPRLPRPRPRPTIQPRP	0.0396
RRIRKRPPRLPRPRPRPLDEPRP	0.0161
RRIRHRPPRLPRPRPRPWVLPRP	-0.776
RRIRPRPPRLPRPRPRPHMEPRP	-0.0417
RRIRLRPPRLPRPRPRPSPKPRP	0.0205
RRIRCRPPRLPRPRPRPANPPRP	-0.057
RRIRWRPPRLPRPRPRPMPMPRP	0.112
RRIRGRPPRLPRPRPRPMNGPRP	0.00709
RRIRFRPPRLPRPRPRPRDCPRP	2.96
RRIRHRPPRLPRPRPRPADGPRP	-0.279
RRIRFRPPRLPRPRPRPTMYPRP	-0.459
RRIRRRPPRLPRPRPRPHYPPRP	0.158
RRIRMRPPRLPRPRPRPYWPPRP	-0.311
